# From publication PMC4943706
# Molecular target: Factor Xa
# Assay: SPR; FXa immobilised by amine coupling on a CM5 chip (1455.7 RU); Lofaxin as analyte at 1.95-31.25 nM; Biacore T100, 25°C, HBS-P buffer (10 mM HEPES, 150 mM NaCl, 0.005% P20, pH 7.4); global fit to the 1:1 Langmuir model
substance,measurement,value
recombinant Lofaxin (Lufaxin-like salivary protein of Bichromomyia olmeca) (natural protein),Kd,1.83 nM
